In this experiment the target is VHH2-Fc antibody (VHH C2 fused to the Fc of human IgG1) (llama (Lama glama)). In words: SPR; Biacore 3000; […] (10 mM acetate pH 3.5); […].
VHH2-Fc antibody (VHH C2 fused to the Fc of human IgG1) (llama (Lama glama)), sequence (heavy, as listed by the source): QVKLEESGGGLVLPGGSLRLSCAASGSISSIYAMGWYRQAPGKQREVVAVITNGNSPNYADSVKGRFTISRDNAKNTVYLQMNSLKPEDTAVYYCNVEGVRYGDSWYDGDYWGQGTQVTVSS

For the substance “α-cobratoxin (from UniProt P01391 1-71) (natural protein)”, the koff is 5e-05 s⁻¹.

These data come from article PMC3718736.
